Experimental data reported in patent US20180037892, “EPCAM APTAMERS AND CONJUGATES THEREOF” (Deakin University, published 2018).

How the values were obtained:
[1] = biological target: T1, Transferrin receptor (TfR) (Mus musculus, UniProt Q62351 Q62351:1-763); assay: flow; bEnd.3 cells, 1 mM MgCl2 folding, 37 C; text gives 365.6; details: tags: native TfR on bEnd.3 mouse cerebral endothelial cells; chain copies: 2; label: 5' TYE665; hairpin
[2] = biological target: T1, Transferrin receptor (TfR); assay: flow; bEnd.3 cells, 5 mM MgCl2 folding, 37 C; details: tags: native TfR on bEnd.3 mouse cerebral endothelial cells; chain copies: 2; label: 5' TYE665; two hairpins
Experimental: (§1) In order to determine the binding affinity (equilibrium dissociation constant KD) of the aptamers. Binding assays were conducted to measure the binding to native EpCAM protein expressed on the cell surface. The aptamers were incubated with the cells at concentrations ranging from 0 nM to 400 nM. These were subsequently analysed by flow cytometry. Aptamers were thawed from storage (−20° C.) prior to use. These were then diluted via serial dilutions with phosphate buffered saline (PBS) in order to achieve the desired concentrations. PBS was supplemented with a MgCl₂ concentration appropriate for the aptamer (1 mM for anti-TfR aptamers; 5 mM for conjugate aptamers). Aptamers were then folded into their 3D structures using a thermocycler (85° C. for 5 minutes, slow cooling to 22° C. over 10 minutes and 37° C. for 15 minutes).
(§2) The binding affinities of aptamers Bi1, Bi2 and Bi3 were determined semi-quantitatively via flow cytometry, using bEnd.3 cells to assess reactivity with TfR, HEY cells to determine EpCAM specificity and the MOLT4 cell line as a negative control. Three independent binding assays were performed for these aptamer against all three cell lines (bEnd.3, HEY and MOLT4).

[3] = biological target: T2, EpCAM (UniProt P16422 P16422:24-314); assay: flow; HEY cells, 5 mM MgCl2 folding, 37 C; details: tags: native EpCAM on HT29 or HEY cells; label: 5' TYE665; two hairpins
T2 sequence: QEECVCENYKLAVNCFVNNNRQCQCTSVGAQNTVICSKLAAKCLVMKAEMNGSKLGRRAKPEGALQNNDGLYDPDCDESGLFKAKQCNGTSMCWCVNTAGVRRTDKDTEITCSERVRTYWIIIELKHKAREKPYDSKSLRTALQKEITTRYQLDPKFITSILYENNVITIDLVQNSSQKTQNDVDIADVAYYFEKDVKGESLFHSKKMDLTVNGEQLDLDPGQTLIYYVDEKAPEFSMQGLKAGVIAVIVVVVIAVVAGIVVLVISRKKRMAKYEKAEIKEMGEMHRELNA
Experimental: as §1, §2

[4] = biological target: T1, Transferrin receptor (TfR); assay: flow; bEnd.3 cells, 5 mM MgCl2 folding, 37 C; text gives 305.5; details: tags: native TfR on bEnd.3 mouse cerebral endothelial cells; chain copies: 2; label: 5' TYE665; two hairpins
Experimental: as §1, §2

[5] = biological target: T1, Transferrin receptor (TfR); assay: flow; bEnd.3 cells, 1 mM MgCl2 folding, 37 C; details: tags: native TfR on bEnd.3 mouse cerebral endothelial cells; chain copies: 2; label: 5' TYE665; hairpin
[6] = biological target: T2, EpCAM; assay: flow; HEY cells, 37 C; details: tags: native EpCAM on HT29 or HEY cells, label: 5' TYE665, hairpin
Experimental: (§3) The equilibrium dissociation constant (KD) of each DNA EpCAM aptamer (Ep7, Ep8 and Ep9) was determined by measuring its binding to native EpCAM protein expressed on the cell surface using flow cytometry. HT29, HEY and HEK293T (5×10⁵) cells were first incubated with blocking buffer (PBS containing 10% FCS, 1 mg/mL tRNA, 1 mg/mL BSA) for 30 minutes followed by a single wash with binding buffer (PBS containing 10% FCS, 1 mg/mL tRNA, 1 mg/mL BSA) prior to incubation with serial dilutions of concentrations of the respective TYE665-labelled aptamers (0 to 200 nM) in binding buffer for 30 min at 37° C. The cells were washed three times with PBS and resuspended in PBS prior to flow cytometric analysis. The fluorescent intensity was determined using a FACS Canto II flow cytometer (Becton Dickinson), counting 10,000 events for each sample. The mean fluorescent intensity of each concentration was subtracted from that of the auto fluorescent control and the KD for each aptamer was calculated from the normalised values for fluorescent intensity.

[7] = biological target: T2, EpCAM; assay: flow; HT29 cells, 37 C; no binding to EpCAM-negative HEK293T and K562; details: tags: native EpCAM on HT29 or HEY cells; label: 5' TYE665; hairpin
Experimental: as §3

[8] = biological target: T2, EpCAM; assay: flow; HEY cells, 37 C; not internalised; details: tags: native EpCAM on HT29 or HEY cells; label: 5' TYE665; hairpin
[9] = biological target: T2, EpCAM; assay: flow; HEY cells, scrambled EpCAM loop, 5 mM MgCl2 folding, 37 C; details: tags: native EpCAM on HT29 or HEY cells; label: 5' TYE665; two hairpins
Experimental: as §1, §2

[10] = biological target: T1, Transferrin receptor (TfR); assay: flow; bEnd.3 cells, 5 mM MgCl2 folding, 37 C; not internalised; details: tags: native TfR on bEnd.3 mouse cerebral endothelial cells; chain copies: 2; label: 5' TYE665; two hairpins
Experimental: as §1, §2

T1 sequence (Q62351 whole entry, one chain of several): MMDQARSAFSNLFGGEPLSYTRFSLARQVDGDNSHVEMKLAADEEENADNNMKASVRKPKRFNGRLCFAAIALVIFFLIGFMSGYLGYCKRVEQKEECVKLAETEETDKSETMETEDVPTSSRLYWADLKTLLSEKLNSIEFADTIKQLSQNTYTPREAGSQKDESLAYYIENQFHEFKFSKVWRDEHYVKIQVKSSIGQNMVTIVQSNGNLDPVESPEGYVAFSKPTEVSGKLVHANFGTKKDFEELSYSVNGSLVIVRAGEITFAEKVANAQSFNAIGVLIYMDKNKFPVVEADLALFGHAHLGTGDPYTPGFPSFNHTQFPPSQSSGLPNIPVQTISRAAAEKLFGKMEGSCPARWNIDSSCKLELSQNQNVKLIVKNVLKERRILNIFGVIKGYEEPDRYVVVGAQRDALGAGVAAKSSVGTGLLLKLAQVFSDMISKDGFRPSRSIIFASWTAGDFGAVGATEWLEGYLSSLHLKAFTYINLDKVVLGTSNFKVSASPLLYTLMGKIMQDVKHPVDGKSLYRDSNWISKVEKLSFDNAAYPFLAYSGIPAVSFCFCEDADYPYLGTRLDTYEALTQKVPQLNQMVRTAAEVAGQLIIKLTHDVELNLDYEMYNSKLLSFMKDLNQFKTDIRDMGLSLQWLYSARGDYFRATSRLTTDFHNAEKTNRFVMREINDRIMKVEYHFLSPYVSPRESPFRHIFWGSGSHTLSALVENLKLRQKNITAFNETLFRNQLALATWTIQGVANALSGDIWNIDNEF

GCGTGGTACCACGC (ssDNA, 3' inverted dT) [TfR3]
Kd [1]: 366 nM

GCGCGGTACCGCGCTAACGGAGGTTGCGTCCGT (ssDNA, 3' inverted dT) [Bi3 (TEPP, TfR3 loop + Ep7 loop conjugate)]
Kd [2]: 342 nM | Kd [3]: 219 nM

GCGCGGGCCCGCGCTAACGGAGGTTGCGTCCGT (ssDNA, 3' inverted dT) [Bi2 (TfR2 loop + Ep7 loop conjugate)]
Kd [4]: 305 nM | Kd [3]: 205 nM

GCGTGGGCCCACGC (ssDNA, 3' inverted dT) [TfR2]
Kd [5]: 525 nM

CGCGCGCCGCAGGTTGCGTGCGGCGCGCGT (ssDNA, 3' inverted dT [30 (3' inverted dT)]) [Ex Ep7 (extended Ep7)]
Kd ([6]; 10 bp stem): 63.7 nM

GCGTGTGCACACGC (ssDNA, 3' inverted dT) [TfR1]
Kd [5]: 5760 nM

GGGGTTGGCCCCT (ssDNA, 3' inverted dT [13 (3' inverted dT)]) [Ep9]
Kd [6]: 266 nM | Kd [7]: 31.8 nM

CGCGCGCCGCATTCCTTTTGCGGCGCGCGT (ssDNA, 3' inverted dT [30 (3' inverted dT)]) [Scr Ex Ep7 (scrambled extended Ep7)]
Kd [8]: 521 nM

GCGCGTGCACGCGCTAACGGATTCCTTTTCCGT (ssDNA, 3' inverted dT) [Bi1 (TENN conjugate, TfR1 loop + scrambled Ep7 loop)]
Kd [9]: 921 nM | Kd [10]: 1690 nM
